Assay results from patent US20250388936A1, “METHODS AND CELLS FOR THE PRODUCTION OF FLUORINATED COMPOUNDS” (priority 2022, published 2025).

B1: FIA^PtaU1: fluorinase of Methanosaeta sp. PtaU1.Bin055, SEQ ID NO: 1, accession OPY51785.1 (protein, listed as Methanosaeta sp.)
chain: MLQNTKNEYKPRDGGGHRPIIGFMSDLGTEDDSVGICKGVMLGLCPDAVIVDISHSMTPWDIDQGSRLIVDLPKFFPNWTTFATTSYRETGTSARSVAIKLPSGHVYVAPNNGLLTRVIEDHGYVEAYEVTTVGAIPAEPEPTWFSRDMVAYPAAAIAAGFPLENVGRPLNDSEIVRADLPRYTQAEDGIIQGIVTTIDRPFGNIWTNIPRRIIENELRIAYGTNIRVVLDNLLVLEVPFMRTFGDVGLKKPMCYINSRGYFSLAYYGGNLADPYNIRRGMPVKIESITR
modifications: Methanosaeta sp. PtaU1.Bin055
B2: DeoD: PNP from E. coli, SEQ ID NO: 15 (protein, listed as Escherichia coli)
chain: MATPHINAEMGDFADVVLMPGDPLRAKYIAETFLEDAREVNNVRGMLGFTGTYKGRKISVMGHGMGIPSCSIYTKELITDFGVKKIIRVGSCGAVLPHVKLRDVVIGMGACTDSKVNRIRFKDHDFAAIADFDMVRNAVDAAKALGIDARVGNLFSADLFYSPDGEMFDVMEKYGILGVEMEAAGIYGVAAEFGAKALTICTVSDHIRTHEQTTAAERQTTFNDMIKIALESVLLGDKE
B3: SalL^Stro: chlorinase from Salinispora tropica CNB-440, accession 2Q6L_A (protein, UniProt A4X3Q0 1-283, looked up)
Adenosyl-chloride synthase: MQHNLIAFLSDVGSADEAHALCKGVMYGVAPAATIVDITHDVAPFDVREGALFLADVPHSFPAHTVICAYVYPETGTATHTIAVRNEKGQLLVGPNNGLLSFALDASPAVECHEVLSPDVMNQPVTPTWYGKDIVAACAAHLAAGTDLAAVGPRIDPKQIVRLPYASASEVEGGIRGEVVRIDRAFGNVWTNIPTHLIGSMLQDGERLEVKIEALSDTVLELPFCKTFGEVDEGQPLLYLNSRGRLALGLNQSNFIEKWPVVPGDSITVSPRVPDSNLGPVLG
B4: FIA^MA37: fluorinase of Streptomyces sp. MA37, SEQ ID NO: 30, accession CDH39444.1 (protein, listed as Streptomyces sp.)
chain: MAANGSQRPIIAFMSDLGTTDDSVAQCKGLMHSICPGVTVVDVCHSMTPWDVEEGARYIVDLPRFFPEGTVFATTTYPATGTTTRSVAVRIRQAAKGGARGQWAGSGDGFERADGSYIYIAPNNGLLTTVLEEHGYIEAYEVTSTKVIPANPEPTFYSREMVAIPSAHLAAGFPLAEVGRRLDDSEIVRFHRPAVEISGEALSGVVTAIDHPFGNIWTNIHRTDLEKAGIGQGKHLKIILDDVLPFEAPLTPTFADAGAIGNIAFYLNSRGYLSLARNAASLAYPYNLKAGLKVRVEAR
modifications: Streptomyces sp. MA37

Assays:
[1] = Steady-state fluorination kinetics of purified fluorinases (5′-FDA by HPLC); assay type: biochemical; details: 50 mM HEPES, pH 7.8, 75 mM KF, varying SAM, 37° C., triplicate
Method: (§1) 96-well activity assays were carried out in 150 μL reactions containing 50 mM HEPES pH 7.8, 75 mM KF, ˜1 μM fluorinase (considering the theoretical molecular mass), and 10, 25, 50, 100, 250, or 500 μM SAM (New England Biolabs). 96-well PCR plates were sealed and incubated for 1 h at 37° C., 5 min at 95° C., and cooled to 10° C. in a thermocycler (Bio-Rad). The plates were then centrifuged for 30 min at 2,500×g and 120 μL of supernatants were transferred to round-bottom 96-well plates (Thermo Scientific), which were sealed with a silicone lid for HPLC analysis. Transhalogenation reactions were carried out in the same way, but using increasing concentrations of 5′-CIDA (5′-chloro-5′-deoxyadenosine) in the presence of 1 mM L-Met.
Steady-state kinetics were performed in the same conditions with slight variations. Triplicate reactions (600 μL final volume) were prepared in 1.5-mL tubes and incubated for 5 min at 37° C. before addition of SAM (1.5625-800 μM), after which 90 μL aliquots were removed at different time-points (2, 5, 10, 15, 20 and 30 minutes), boiled for 5 min at 95° C., and placed on ice. Samples were centrifuged at maximum speed for 10 min at 4° C. before being transferred to 96-well plates for 5′-FDA quantitation by HPLC analysis. Product formation rates for the different substrate concentrations were calculated by least squares linear regression with at least three time-points and fitted to the Michaelis-Menten equation using the Origin software (OriginLab Corporation).
(§2) 5′-FDA was quantified following absorbance at 230 nm using a Zorbax C18 column (3.5 μm 4.6×100 mm, Agilent) connected to a HPLC system (Dionex Ultimate 3000, ThermoFisher) with the following gradient (1 mL/min flow rate): 5-12% solvent B in 1.5 min, 12% solvent B for 1 min, 12-30% solvent B in 2 min, 30-70% B in 1.5 min (solvent A: 0.05% acetic acid in water; solvent B: acetonitrile). A six-point calibration curve (R2>0.99) was prepared with 0.5-50 μM 5′-FDA, which was chemically synthesized as previously described (Calero et al., 2020).

[2] = 96-well end-point (1 h) fluorinase activity assay; assay type: biochemical; details: purified enzymes, increasing SAM concentrations, 5′-FDA by HPLC
Method: as §1, §2

[3] = End-point (1 h) transhalogenation assay; assay type: biochemical; details: 5′-FDA production from 5′-CIDA, 1 mM L-Met, 75 mM KF, 37° C.
Method: as §1, §2

[4] = Chlorination reaction, KF replaced by KCl; assay type: biochemical
From the text: Since FlA^PtaU1 was predicted to be a chlorinase, we evaluated whether it was also active towards SN2-dependent addition of Cl^− onto SAM. […] Previous studies have shown that FlA^Scat can also catalyze the chlorination reaction (Deng et al., 2006). However, this feature requires the simultaneous removal of L-Met or 5′-CIDA, the reaction products, since the reverse dehalogenation reaction is favored. We could observe transhalogenation on 5′-CIDA (i.e. 5′-FDA production in the presence of L-Met and F^−, steps III and I in FIG. 20, respectively; see FIG. 29). Again, FlA^PtaU1 catalytically outperformed all other fluorinases, with a 3-fold higher Vmax value. Although we cannot rule out that FlA^PtaU1 could execute de novo chlorination, it is clear that the 23-residue loop reportedly found in «conventional» fluorinases is not essential for the activity towards F^−.

[5] = assay type: cell-based, Pseudomonas putida KT2440; details: induction with 15 mM NaF, 20 h, 30° C., LC-MS
[6] = Coupled enzymatic assay, conversion of 5′-FDA into FAld; assay type: biochemical; details: with isomerase^S. cattleya and aldolase^S. coelicolor
Method: Coupled isomerase and aldolase activity was monitored by following the consumption of DHAP, through NADH reduction at 340 nm (ε=6220 M^−1 cm^−1) via the activity of a Glycerol-3-Phosphate Dehydrogenase (GPDH, Sigma Aldrich). 5′-FDRP was produced by incubating chemically synthetized 5′-FDA (Calero et al. 2020) at 7.43 mM with 0.5 U Nucleoside Phosphorylase (PNP1, Sigma Aldrich) in 10 mM Tris buffer, for 16 h at 30° C. The assay was carried in 200 μl total volume at 30° C. over a time course of 3 hours. Reaction conditions were 50 mM Tris-HCl Buffer pH7.5, 200 μM NADH, 200 μM 5′-FDRP, 1 U GPDH and 10 μg purified of each enzyme. The reduction of NADH was followed at absorbance 340 nm in a Microtiter Plate reader (BioTek, Elx808).
We used this enzymatic assay with cell-free extracts of cultures of P. putida KT2440::FRS-T7RNAP expressing an isomerase and an aldolase from S. cattleya (isoSc, isomerase^S. cattleya) and S. coelicolor (aldSc, aldolase^S. coelicolor), respectively, that have been previously shown that are able to use fluorinated intermediates (Deng et al., 2008), as well as both an isomerase (isoBt, isomerase^B. thuringiensis) and an aldolase (aldBt) from B. thuringiensis that have been previously described to perform the same reaction with the non-fluorinated metabolites (Beaudoin 2018). […]

[7] = Eustaquio et al., 2008; cited from earlier work

| Molecule | Km [1] [µM] | kcat [1] [s⁻¹] | Production of 5′-FDA in vivo [5] | also measured |
| --- | --- | --- | --- | --- |
| B1 | 6.99 ± 1.06 | 0.00683 ± 0.00017 | could be detected | 5′-FDA synthase activity [2]: one of the top performers; Vmax, fold higher than all other fluorinases [3]: 3 fold; 5′-CIDA accumulation [4]: no 5′-CIDA accumulation could be detected; intracellular 5′-FDA, fold higher with respect to the other three fluorinase genes [5]: 6- to 12 fold |
| B2 | – | – | – | conversion of 5′-FDA into FAld [6]: conversion was higher |
| B3 | – | – | – | activity on F^− [7]: inactive on F^− |
| B4 | 4.42 ± 0.58 | 0.00267 ± 0.00017 | could be detected | – |
